Experimental findings from patent US20210032364A1 (NOMOCAN PHARMACEUTICALS, published 2021) are described below.

Assay [1] deals with T1, recombinant HDM2 protein (GST tagged, Abcam, Cat. No. ab188727) (human, UniProt Q00987 1-491).
T1 construct: Bought protein, called full-length, about 83 kD with the tag; also called recombinant full-length HDM2 protein; recombinant HDM2-GST protein; not shown: GST tag at the N-terminus
Nature of the assay: immunoblot. How it is done: Western Blot: As for immunoblots, 1 μg/well of recombinant HDM2 protein (GST tagged, Abcam, Cat. No. ab188727) was separated on 8-16% sodium dodecyl sulfate (SDS) polyacrylamide gel and proteins were then transferred to polyvinylidene difluoride (PVDF) membrane. […] The membrane was then washed×3 times (10 minutes each) and incubated for 1 hour with corresponding HRP-conjugated secondary antibody (Goat anti-Mouse IgG (H&L), F(ab′)2 Frag Cross-adsorbed HRP (HRP-GaM F(ab′)2), ThermoFisher, Cat. No. A24524) diluted 1:5000 in 1% BSA-PBS. The membrane was then washed×3 times and incubated with Pierce ECL Plus Western Blotting Substrate (ThermoFisher, Cat. No. #32132) for 10 min before developing on a LICOR Scanner.
A general note: Immunoblotting shows a protein as a band on a membrane.

Assay [2] has as its target T2, NMC-P3 peptide (human).
T2 peptide: CPVCRQPIQMIVLTYFP
Nature of the assay: peptide-ELISA, plate-bound peptide. How it is done: (§1) Peptide-ELISA Methodology: 5 μg/ml of NMC-P1, NMC-P2 or NMC-P3 peptide antigen was dried onto a 96-well ELISA plate overnight. Plates were then blocked with 5% BSA in 1× phosphate-buffered saline (PBS) (100 μl/well) for 2 hours at room temperature. Microplate wells were then washed 5 times with 300 μl of ice cold lx PBS. […] After 2 hours, wells were washed 5 times with 300 μl ice-cold PBS/well and 100 μl secondary antibody (HRP-labeled Goat anti-Mouse F(ab′)2 H&L cross-adsorbed secondary antibody (HRP-GaM F(ab′)2), ThermoFisher, Cat. No. A24524) diluted 1:2500 to 1:5000 in PBS-1% BSA solution were added and the incubation continued at room temperature. After 1 hour, the wells were washed again 5 times with 200 μl of ice-cold PBS and 50 μL of the TMB Substrate Solution (1-StepTM Ultra TMB-ELISA, ThermoFisher, Cat. No. 34028) were added to each well and color was allowed to develop for 30 minutes at room temperature. The reaction was stopped by addition of 50 μL of stop solution (ThermoFisher, Cat. No. SSO4) to each well and absorbance of each well was read immediately for optical density (OD) at 450 nm.
For orientation: In an ELISA, binding on a coated surface is turned into a signal by an enzyme label.

The target of assay [3] is T3, NMC-P2 peptide (human).
T3 construct: Peptide corresponding to amino acids 15-25 of HDM2
T3 peptide: TTSQIPASEQE
Nature of the assay: peptide competition in cell-ELISA on intact MIA PaCa-2 cells.

Assay [4] has as its target T3, NMC-P2 peptide. Nature of the assay: peptide-ELISA, plate-bound peptide. How it is done:
as §1

Assay [5] addresses T4, NMC-P1 peptide (human).
T4 construct: Peptide corresponding to amino acids 1-15 of HDM2
T4 peptide: MCNTNMSVPTDGAVT
Nature of the assay: peptide-ELISA, plate-bound peptide. The procedure: as §1

The target of assay [6] is T2, NMC-P3 peptide. Nature of the assay: competition peptide-ELISA, soluble peptide pre-incubated with the antibody. How it is done:
as §1

T1 sequence (Q00987 whole entry): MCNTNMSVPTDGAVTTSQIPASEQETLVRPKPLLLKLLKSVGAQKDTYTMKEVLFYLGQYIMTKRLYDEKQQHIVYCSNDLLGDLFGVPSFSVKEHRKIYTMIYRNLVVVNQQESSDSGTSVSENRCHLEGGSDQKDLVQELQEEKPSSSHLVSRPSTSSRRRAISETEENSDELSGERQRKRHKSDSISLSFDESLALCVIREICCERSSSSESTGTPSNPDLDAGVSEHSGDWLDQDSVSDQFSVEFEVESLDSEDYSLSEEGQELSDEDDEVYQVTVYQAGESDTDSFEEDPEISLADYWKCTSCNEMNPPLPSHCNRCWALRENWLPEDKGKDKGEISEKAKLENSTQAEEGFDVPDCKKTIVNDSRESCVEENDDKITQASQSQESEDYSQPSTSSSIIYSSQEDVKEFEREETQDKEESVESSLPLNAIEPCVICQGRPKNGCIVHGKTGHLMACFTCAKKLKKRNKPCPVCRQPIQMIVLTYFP

B1: monoclonal antibody NMC-303 (antibody, V domains shown)
VH: QVQLQQPGAELVKPGASVKLSCKASGYTFTSYYMYWVKQRPGQGLEWIGGINPRNGGTNFNEKFKNKATLTADKSSTTAYMQLSSLTSEDSAVYYCTRSGYYAMDYWGQGTSVTVSS
VL: DIQMTQTTSSLSASLGDRVTISCRASQDISNFLNWYQQKPDGTVKLLIYYTSRLHSGVPSRFSGSGSGTDYSLTISNLEQEDIATYFCQQGNTLPRTFGGGTKLEIK
For the molecule B1, the binding result is listed as “binds” in assay [1], “binds” in assay [2] and “no binding” in assay [3].

B2: monoclonal antibody NMC-204 (antibody, IgG3, V domains shown)
VH: EVQLQESGSVLVRPGASVKLSCKASGDTLSGSWMHWAMQRPGQGLEWIGEIHLNRGTTNYNEKFKGKATVTVDTSSSTAYVDLSSLTSEDSAVYYCARSPGFAYWGQGTLVTVSA
VL: GIVMTQAAPSVPVTPGESVSISCRSSKSLLHSNGNSYLYWFLQRPGQSPQLLIYRMSNLASGVPDRFSGSGSGTAFTLRITRVEAEDVGVYYCMQHLEYPFTFGSGTKLEIK
As for B2, the binding result is “binds” in assay [4], “no binding” in assay [5] and “no binding” in assay [2].

B3: monoclonal antibody NMC-103 (antibody, IgG1, V domains shown)
VH: EVQLQESGGGLVQPGGSLRLSCTTSGFTFTHYYMSWVRQPPGKALEWLGFIRNKAKGYTAEYSASVKGRFTISRDNSQSILYLQMNTLRPEDSATYYCARDIGDNWGQGTLVTVSS
VL: DIVMTQAAFSNPVTLGTSASISCRSSKNLLHSNGITYLYWYLQRPGQSPQLLISRVSNLASGVPNRFSGSESGTDFTLRISRVEAEDVGVYFCAQLLELPYTFGGGTKLEIK
As to B3, the binding result is recorded as “no binding” in assay [4], “binds” in assay [5] and “no binding (tested: 10 µl/ml)” in assay [6].
